Results reported in patent US10562935B2, “Stapled peptides and uses thereof” (London Health Sciences Centre Research Inc., priority 2015, dated 2020).
Bridges are numbered along the chain shown (N, C = ends).

Tests used:
[1] = test system: NF-κB; assay: Inflammation assay: NF-κB inducible SEAP reporter in RAW-Blue macrophages stimulated with PAM3CSK4; assay type: cell-based, murine; settings: % inhibition relative to positive control
Experimental: Compounds 132, 133, 135, 150, 152, 157-161, 265-269, 275, 277, and 278 were evaluated for their ability to inhibit inflammation. To determine the effect of the peptides on inflammation, commercially available murine RAW 264.7 macrophages carrying a secreted embryonic alkaline phosphatase (SEAP) reporter that is inducible by NF-κB (RAW-Blue; InvivoGen, San Diego, Calif., USA) were used. Cells were grown to 80% confluence in DMEM containing 4.5 g/L glucose, 10% heat-inactivated fetal bovine serum, 2 mM L-glutamine, 50 μg/mL penicillin/streptomycin, 100 μg/mL Normocin (InvivoGen) at 37° C. in 5% CO2. For peptide screening experiments, cells were scraped in growth medium, counted, and plated to flat-bottom 96-well plates at a density of 5×10^4 cells/well either in the presence or absence (control) of 200 ng/mL TLR1/TLR2 agonist PAM3CSK4 (InvivoGen). Peptides were added in 6 replicate wells at a dose of 10 ng/mL in the presence of PAM3CSK4. After 18 hours of stimulation, SEAP concentrations (indicating NF-κB activity) were measured in the supernatants collected from the RAW-Blue cells using QUANTI-BLUE reagent (InvivoGen). After 20 minutes of incubation at 37° C., SEAP levels were determined using spectrophotometry at a wavelength of 630 nm.
Values are the mean and SDM of n=3 replicates. *p<0.05 and ***p<0.001 compared to +PAM3. In FIGS. 44 and 45, where bars are labeled with two compound numbers (“133/150” and “135/152”) this means that the data were pooled for the indicated compounds, i.e., for the non-acetylated and acetylated versions of the indicated peptides.

[2] = Circular dichroism (CD) spectroscopy of linear and stapled peptides in water or 40% TFE/water (Example 3); assay type: physicochemical; settings: for [0]208 mean residue ellipticity: λ = 208 nm; for [0]222 mean residue ellipticity: λ = 222 nm
Experimental: CD spectra were obtained on a Jasco J-810 spectropolarimeter and recorded in the range of 180-260 nm. Peptide solutions were prepared with a 0.1M phosphate buffer solution to a concentration of 0.5 mM. The measurements were performed in quartz cuvettes with a path length of 1 mm and a scanning speed of 10-50 nm/min. Five individual data points were averaged by the instrument in order to obtain the reported CD spectrum. The measurements were carried out at 20° C. A blank solution of 0.1M phosphate buffer solution was run before every measurement in order to baseline correct for any UV-interference observed from the buffer.
CD data for the 14- and 15-mer peptides containing HABD2 (VSKLRSQLVKRKQN, SEQ ID NO: 2) and HABD1 (NLKQKIKHVVKLKDE, SEQ ID NO: 4) and cyclized derivatives thereof in water or 40% TFE/water are provided below in Tables 8 (water) and 9 (40% TFE/water). Tables 8 and 9 provide the mean residue ellipicity ([θ] deg cm^2 dmol^−1) at λ=222 and 208 nm for each peptide and ratios of ellipticities at 222/208. Each of the peptides was acetylated at its amino terminus and amidated at its carboxy terminus.
CD data for linear peptides having the sequences […] (SEQ ID NO: 5) and […] (SEQ ID NO: 6) and cyclized derivatives thereof in water or 40% TFE/water are provided below in Tables 12 (water) and 13 (40% TFE/water). Tables 12 and 13 provide the mean residue ellipicity ([0] deg cm^2 dmol^−1) at λ=222 and 208 nm for each peptide and ratios of ellipticities at 222/208. Each of the peptides was acetylated at its amino terminus and amidated at its carboxy terminus.
Circular Dichroism (CD) spectroscopy is a tool that is used to study the secondary structure characteristics of a compound. Peptides and proteins can fold into organized structures, such as alpha helices and beta sheets, which are the result of complex hydrogen bonding and other interactions between amino acid side chains, as well as adopt a random coil formation, which lacks much of the organization of the other two structures. The CD spectrum of an alpha helix is characterized by two local minima at 208 nm and 222 nm. The ratio of the values of the molar ellipticities at these wavelengths ([θ]222/[θ]208) is a strong indication of the relative helicity of a compound; a compound is more helical when the ratio of these two values approaches 1.0. Synthetic constraints introduced to the peptide backbone can force a peptide chain to increase its helical character. These constraints can be introduced by staples, of varying types, which allow cyclization of the peptide backbone to take place.

[3] = test system: RHAMM-overexpressing (LR21) cells; assay: Cell migration assay (Boyden chamber, Chemicon ECM510); assay type: cell-based; settings: for Migration (% inhib.): % inhibition relative to positive control; for inhibition of cell migration (in words): 10 ng/mL peptide, 20 hours, compared to 30% serum control
Experimental: Compounds 132, 133, 150-152, 156-161, 265-269, 275, 277, and 278 were evaluated for their ability to inhibit cell migration. Cell migration assays were performed using Chemicon Assay Kits (ECM510 (Migration); Billerica, Mass., USA) according to the manufacturer's protocol. Briefly, sub-confluent cultures of RHAMM-overexpressing (LR21) cells were serum starved overnight. 7.5×10^4 cells were then plated in the upper chamber of a Boyden chamber. either in the presence or absence of 10 ng/mL of peptide. 30% fetal bovine serum in DMEM was used as the chemo-attractant in the lower chamber. The number of cells that had crossed the membrane after 20 hours was assessed using the CYQUANT GR Dye and lysis buffer solution provided in the kit. Fluorescence was measured with a fluorescent plate reader using a 480/520 nm filter set.
Values are the mean and SDM of n=3 replicates. *p<0.05, **p<0.01. All statistics compare to 30% serum control. In FIGS. 41-43, where bars are labeled with two compound numbers (“133/150” and “135/152”) this means that the data were pooled for the indicated compounds, i.e., for the non-acetylated and acetylated versions of the indicated peptides.

[4] = [θ]222/[θ]208 ratio in water, summary tables 15, 17, 19
[5] = as repeated in tables 16, 18, 20

Substance	Inflammation (% Inhib.) [1]	[θ]222/[θ]208 ratio of ellipticities [2, 4]	[θ]222/[θ]208 ratio of ellipticities [2, 5]	[0]222/[0]208 ratio of ellipticities ([2]; in 40% TFE/water)	[0]222/[0]208 ratio of ellipticities ([2]; in water)	alpha-helical character by CD (in words) ([2]; in water)	[0]208 mean residue ellipticity ([2]; in 40% TFE/water)	[0]208 mean residue ellipticity ([2]; in water)	[0]222 mean residue ellipticity ([2]; in 40% TFE/water)	[0]222 mean residue ellipticity ([2]; in water)	Migration (% inhib.) [3]	inhibition of cell migration (in words) [3]
Ac-(cyclo-4,8)-NLK[EKIKK]VVKLKDE-NH2 (Ac-NLKEKIKKVVKLKDE-NH2; lactam 4-8; SMILES CC[C@H](C)[C@@H]1NC(=O)[C@H](CCCCN)NC(=O)[C@@H](NC(=O)[C@H](CCCCN)NC(=O)[C@H](CC(C)C)NC(=O)[C@H](CC(N)=O)NC(C)=O)CCC(=O)NCCCC[C@@H](C(=O)N[C@H](C(=O)N[C@H](C(=O)N[C@@H](CCCCN)C(=O)N[C@@H](CC(C)C)C(=O)N[C@@H](CCCCN)C(=O)N[C@@H](CC(=O)O)C(=O)N[C@@H](CCC(=O)O)C(N)=O)C(C)C)C(C)C)NC(=O)[C@H](CCCCN)NC1=O) [Compound 157]	0 % Inhib.	0.38	0.38	0.80	0.38	decreased helicity	-1.56E+04 deg cm^2 dmol^−1	-6.40E+03 deg cm^2 dmol^−1	-1.25E+04 deg cm^2 dmol^−1	-2.46E+03 deg cm^2 dmol^−1	0 % inhib.	–
Ac-(cyclo-4,8)-VSK[ERSQK]VKRKQN-NH2 (Ac-VSKERSQKVKRKQN-NH2; lactam 4-8; SMILES CC(=O)N[C@H](C(=O)N[C@@H](CO)C(=O)N[C@@H](CCCCN)C(=O)N[C@H]1CCC(=O)NCCCC[C@@H](C(=O)N[C@H](C(=O)N[C@@H](CCCCN)C(=O)N[C@@H](CCCNC(=N)N)C(=O)N[C@@H](CCCCN)C(=O)N[C@@H](CCC(N)=O)C(=O)N[C@@H](CC(N)=O)C(N)=O)C(C)C)NC(=O)[C@H](CCC(N)=O)NC(=O)[C@H](CO)NC(=O)[C@H](CCCNC(=N)N)NC1=O)C(C)C) [Compound 150]	0 % Inhib.	0.53	0.53	0.81	0.53	decreased helicity	-1.21E+04 deg cm^2 dmol^−1	-6.30E+03 deg cm^2 dmol^−1	-9.75E+03 deg cm^2 dmol^−1	-3.35E+03 deg cm^2 dmol^−1	0 % inhib.	significantly inhibit cell migration
Ac-(cyclo-5,9)-NLKQ[EIKHK]VKLKDE-NH2 (Ac-NLKQEIKHKVKLKDE-NH2; lactam 5-9; SMILES CC[C@H](C)[C@@H]1NC(=O)[C@@H](NC(=O)[C@H](CCC(N)=O)NC(=O)[C@H](CCCCN)NC(=O)[C@H](CC(C)C)NC(=O)[C@H](CC(N)=O)NC(C)=O)CCC(=O)NCCCC[C@@H](C(=O)N[C@H](C(=O)N[C@@H](CCCCN)C(=O)N[C@@H](CC(C)C)C(=O)N[C@@H](CCCCN)C(=O)N[C@@H](CC(=O)O)C(=O)N[C@@H](CCC(=O)O)C(N)=O)C(C)C)NC(=O)[C@H](Cc2c[nH]cn2)NC(=O)[C@H](CCCCN)NC1=O) [Compound 158]	0 % Inhib.	0.43	0.43	0.84	0.43	–	-1.70E+04 deg cm^2 dmol^−1	-6.60E+03 deg cm^2 dmol^−1	-1.24E+04 deg cm^2 dmol^−1	-2.83E+03 deg cm^2 dmol^−1	43 % inhib.	significantly inhibit cell migration
Ac-(cyclo-5,9)-VSKL[ESQLK]KRKQN-NH2 (Ac-VSKLESQLKKRKQN-NH2; lactam 5-9; SMILES CC(=O)N[C@H](C(=O)N[C@@H](CO)C(=O)N[C@@H](CCCCN)C(=O)N[C@@H](CC(C)C)C(=O)N[C@H]1CCC(=O)NCCCC[C@@H](C(=O)N[C@@H](CCCCN)C(=O)N[C@@H](CCCNC(=N)N)C(=O)N[C@@H](CCCCN)C(=O)N[C@@H](CCC(N)=O)C(=O)N[C@@H](CC(N)=O)C(N)=O)NC(=O)[C@H](CC(C)C)NC(=O)[C@H](CCC(N)=O)NC(=O)[C@H](CO)NC1=O)C(C)C) [Compound 151]	–	0.70	0.70	0.82	0.70	alpha-helical character equal to that of the linear peptide	-1.62E+04 deg cm^2 dmol^−1	-9.25E+03 deg cm^2 dmol^−1	-1.33E+04 deg cm^2 dmol^−1	-6.45E+03 deg cm^2 dmol^−1	59 % inhib.	significantly inhibit cell migration
Ac-(cyclo-7,11)-VSKLRS[ELVKK]KQN-NH2 (Ac-VSKLRSELVKKKQN-NH2; lactam 7-11; SMILES CC(=O)N[C@H](C(=O)N[C@@H](CO)C(=O)N[C@@H](CCCCN)C(=O)N[C@@H](CC(C)C)C(=O)N[C@@H](CCCNC(=N)N)C(=O)N[C@@H](CO)C(=O)N[C@H]1CCC(=O)NCCCC[C@@H](C(=O)N[C@@H](CCCCN)C(=O)N[C@@H](CCC(N)=O)C(=O)N[C@@H](CC(N)=O)C(N)=O)NC(=O)[C@H](CCCCN)NC(=O)[C@H](C(C)C)NC(=O)[C@H](CC(C)C)NC1=O)C(C)C) [Compound 153]	–	0.54	0.54	0.74	0.54	decreased helicity	-1.02E+04 deg cm^2 dmol^−1	-6.79E+03 deg cm^2 dmol^−1	-8.53E+03 deg cm^2 dmol^−1	-3.68E+03 deg cm^2 dmol^−1	0 % inhib.	–
